Results: US20230031262A1, “TREATMENT OF MILD TRAUMATIC BRAIN INJURY” (OXEIA BIOPHARMACEUTICALS, INC., priority 2019, published 2023)
Where no end group is shown, it is not given here. The star is where a group is joined. Octanoyl = CCCCCCCC(=O)*

How the values were obtained:
[1] = stability of reconstituted OXE-103 drug product on storage; assay type: physicochemical; conditions: reconstituted OXE-103 for SC administration 14 mg in 5 mL multi-use vials
Description: OXE-103 drug product, placebo, and diluent are stored refrigerated between 2° C. to 8° C. (35.6° F. to 46.4° F.). Reconstituted OXE-103 for SC administration 14 mg (in 5 mL multi-use vials) is stable for up to 14 days at 10° C. or for up to 3 days when stored at 25° C./1000 Lux. The reconstituted drug product (and placebo) is stored refrigerated at 2° C. to 8° C. (35.6° F. to 46.4° F.).

[2] = in vivo; cited from earlier work
[3] = in vivo; cited from earlier work; remark: listed apart in the source
[4] = in vivo; cited from earlier work; remark: listed apart in the source

Substance: ghrelin (GSS(Octanoyl)FLSPEHQRVQQRKESKKPPAKLQPR; UniProt Q9UBU3 24-51, looked up) [OXE-103]
- stable for up to (reconstituted, storage time) ([1]; at 10° C.): up to 14 days
- stable for up to (reconstituted, storage time) ([1]; stored at 25° C./1000 Lux): up to 3 days
- serum half-life [2]: about 30 minutes
- safety [3]: quite safe
- adverse effects of long term use [4]: increased appetite, weight gain, and adiposity
